B1: Heterogeneous nuclear ribonucleoprotein A1 (Homo sapiens), P09651-2 (parent)
chain: MSKSESPKEPEQLRKLFIGGLSFETTDESLRSHFEQWGTLTDCVVMRDPNTKRSRGFGFVTYATVEEVDAAMNARPHKVDGRVVEPKRAVSREDSQRPGAHLTVKKIFVGGIKEDTEEHHLRDYFEQYGKIEVIEIMTDRGSGKKRGFAFVTFDDHDSVDKIVIQKYHTVNGHNCEVRKALSKQEMASASSSQRGRSGSGNFGGGRGGGFGGNDNFGRGGNFSGRGGFGGSRGGGGYGGSGDGYNGFGNDGSNFGGGGSYNDFGNYNNQSSNFGPMKGGNFGGRSSGPYGGGGQYFAKPRNQGGYGGSSSSSSYGSGRRF

Variants of: B1
Settings: with ubql2_human UBQLN2, Q9UHD9
Sequence of ubql2_human UBQLN2, Q9UHD9 (Q9UHD9 whole entry): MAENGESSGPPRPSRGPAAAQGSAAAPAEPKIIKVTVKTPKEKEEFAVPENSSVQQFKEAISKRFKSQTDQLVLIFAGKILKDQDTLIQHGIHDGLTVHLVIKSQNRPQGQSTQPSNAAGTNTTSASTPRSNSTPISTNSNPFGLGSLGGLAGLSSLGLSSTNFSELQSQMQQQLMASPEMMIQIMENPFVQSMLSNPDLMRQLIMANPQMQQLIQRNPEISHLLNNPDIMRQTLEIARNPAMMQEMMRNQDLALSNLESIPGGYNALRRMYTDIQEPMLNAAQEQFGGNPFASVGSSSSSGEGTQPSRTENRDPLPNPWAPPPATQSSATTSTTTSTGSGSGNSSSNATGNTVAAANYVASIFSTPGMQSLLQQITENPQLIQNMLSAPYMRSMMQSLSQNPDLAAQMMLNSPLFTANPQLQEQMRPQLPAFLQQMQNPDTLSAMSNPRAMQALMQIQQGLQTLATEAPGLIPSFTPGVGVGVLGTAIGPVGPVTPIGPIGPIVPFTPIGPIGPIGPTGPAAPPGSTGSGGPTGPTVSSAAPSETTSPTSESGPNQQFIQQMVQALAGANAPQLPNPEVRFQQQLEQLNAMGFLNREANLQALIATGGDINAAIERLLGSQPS

effect of a mutation on the interaction	Variant
decreasing interaction	D262V
